Results taken from patent US20240124607A1 (Merck Sharp & Dohme, published 2024).

T1: Human CEACAM5 (K398) (human, UniProt P06731 35-685, limits assumed)
T1 construct: also called K398 allele
T1 sequence: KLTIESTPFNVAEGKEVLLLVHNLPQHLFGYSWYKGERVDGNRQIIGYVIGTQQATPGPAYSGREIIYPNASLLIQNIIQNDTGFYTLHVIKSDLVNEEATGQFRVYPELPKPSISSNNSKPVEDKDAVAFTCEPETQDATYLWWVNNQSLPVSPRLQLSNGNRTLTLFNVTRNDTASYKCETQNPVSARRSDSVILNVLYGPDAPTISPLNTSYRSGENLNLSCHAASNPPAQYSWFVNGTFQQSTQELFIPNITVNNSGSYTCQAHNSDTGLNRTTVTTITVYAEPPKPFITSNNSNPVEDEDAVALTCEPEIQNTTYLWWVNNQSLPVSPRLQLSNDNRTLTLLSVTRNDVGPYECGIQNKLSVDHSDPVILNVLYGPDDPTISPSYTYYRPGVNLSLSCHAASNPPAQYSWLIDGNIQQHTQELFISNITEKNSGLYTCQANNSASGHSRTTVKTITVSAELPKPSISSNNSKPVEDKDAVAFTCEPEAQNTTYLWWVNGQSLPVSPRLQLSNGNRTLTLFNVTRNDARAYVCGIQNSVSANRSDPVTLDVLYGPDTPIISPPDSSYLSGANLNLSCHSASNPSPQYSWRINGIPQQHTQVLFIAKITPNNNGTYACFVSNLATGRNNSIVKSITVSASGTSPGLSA

T2: Human CEACAM5 I113T (human, UniProt P06731 35-685, limits assumed)
T2 sequence: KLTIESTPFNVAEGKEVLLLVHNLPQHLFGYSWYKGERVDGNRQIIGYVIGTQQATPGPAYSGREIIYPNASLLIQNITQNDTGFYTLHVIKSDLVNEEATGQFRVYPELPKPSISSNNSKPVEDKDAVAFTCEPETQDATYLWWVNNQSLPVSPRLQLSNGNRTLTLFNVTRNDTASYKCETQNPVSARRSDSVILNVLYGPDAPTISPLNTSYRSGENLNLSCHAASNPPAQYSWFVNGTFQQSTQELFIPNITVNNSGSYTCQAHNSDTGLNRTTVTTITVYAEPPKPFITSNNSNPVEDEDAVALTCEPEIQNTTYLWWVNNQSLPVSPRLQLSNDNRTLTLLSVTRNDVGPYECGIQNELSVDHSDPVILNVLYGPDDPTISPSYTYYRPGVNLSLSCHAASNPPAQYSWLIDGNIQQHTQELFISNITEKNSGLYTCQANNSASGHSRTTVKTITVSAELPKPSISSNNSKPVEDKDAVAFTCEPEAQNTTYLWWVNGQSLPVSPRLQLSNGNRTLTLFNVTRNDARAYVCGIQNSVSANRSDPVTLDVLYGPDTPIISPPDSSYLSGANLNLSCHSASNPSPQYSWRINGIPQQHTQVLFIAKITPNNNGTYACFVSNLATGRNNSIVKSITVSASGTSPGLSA

T3: Human CEACAM5 (E398) (human, UniProt P06731 35-685, limits assumed)
T3 construct: also called hCEACAM5
T3 sequence: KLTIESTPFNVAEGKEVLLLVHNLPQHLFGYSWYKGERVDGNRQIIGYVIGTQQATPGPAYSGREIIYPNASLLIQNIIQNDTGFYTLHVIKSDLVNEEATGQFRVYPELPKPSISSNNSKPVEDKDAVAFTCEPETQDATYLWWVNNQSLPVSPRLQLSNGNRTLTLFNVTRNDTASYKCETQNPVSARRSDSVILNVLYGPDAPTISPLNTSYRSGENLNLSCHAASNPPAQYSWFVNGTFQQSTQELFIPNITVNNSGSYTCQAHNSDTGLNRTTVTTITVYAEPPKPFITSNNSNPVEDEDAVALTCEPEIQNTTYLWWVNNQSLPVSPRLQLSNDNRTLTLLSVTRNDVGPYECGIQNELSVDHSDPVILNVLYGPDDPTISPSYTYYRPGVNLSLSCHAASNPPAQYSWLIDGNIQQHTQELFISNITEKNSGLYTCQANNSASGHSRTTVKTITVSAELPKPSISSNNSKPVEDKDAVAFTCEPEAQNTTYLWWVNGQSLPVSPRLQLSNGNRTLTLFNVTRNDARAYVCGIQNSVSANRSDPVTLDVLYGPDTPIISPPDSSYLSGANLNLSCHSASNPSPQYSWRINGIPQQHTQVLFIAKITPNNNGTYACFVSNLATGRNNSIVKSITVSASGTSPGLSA


Legend:
Human CEACAM5 (K398) = biological target: T1, Human CEACAM5 (K398); test: SPR, 37C, pH 7.4; reference E398
Human CEACAM5 I113T = biological target: T2, Human CEACAM5 I113T; test: SPR, 37C, pH 7.4; reference E398
Human CEACAM5 (E398) = biological target: T3, Human CEACAM5 (E398); test: SPR, anti-hFc capture, 37C, pH 6.0
Procedure: To determine the affinity and cross-reactivity of CEACAM5 TriNKET molecules, AB0411, AB0466, or AB0621 TriNKETs were captured using an anti-human Fc capture antibody (Cytiva, #BR100839) immobilized onto a Biacore CM5 standard surface sensor chip following manufacturer instructions. Human or cynomolgus CEACAM5 were titrated over captured AB0411, AB0466, and AB0621 as 2-fold serial dilutions starting from 300 nM. Association was monitored for 300 sec and dissociation was monitored for 600 sec. The assay was run at 37° C. at pH 7.4 and 6.0. The surface of the CM5 chip was regenerated with 10 mM glycine pH 1.5 for 20 sec at 100 μL/min.

KD/KD(Ref) (Human CEACAM5 (K398)) | KD/KD(Ref) (Human CEACAM5 I113T) | Kd (Human CEACAM5 (E398)) | kon (Human CEACAM5 (E398)) | Binder
0.9 fold | 1.2 fold | 15 nM | 160000 M⁻¹ s⁻¹ | AB0466 F3' CEACAM5 TriNKET (bispecific antibody, human IgG1, kappa) not shown heavy: EVQLVESGGGLVKPGGSLRLSCAASGFTFSSYSMNWVRQAPGKGLEWVSSISSSSSYIYYADSVKGRFTISRDNAKNSLYLQMNSLRAEDTAVYYCARGAPIGAAAGWFDPWGQGTLVTVSSASTKGPSVFPLAPSSKSTSGGTAALGCLVKDYFPEPVTVSWNSGALTSGVHTFPAVLQSSGLYSLSSVVTVPSSSLGTQTYICNVNHKPSNTKVDKKVEPKSCDKTHTCPPCPAPELLGGPSVFLFPPKPKDTLMISRTPEVTCVVVDVSHEDPEVKFNWYVDGVEVHNAKTKPREEQYNSTYRVVSVLTVLHQDWLNGKEYKCKVSNKALPAPIEKTISKAKGQPREPQVCTLPPSRDELTENQVSLTCLVKGFYPSDIAVEWESNGQPENNYKTTPPVLDSDGSFFLYSWLTVDKSRWQQGNVFSCSVMHEALHNHYTQKSLSLSPG light: DIQMTQSPSSVSASVGDRVTITCRASQGISSWLAWYQQKPGKAPKLLIYAASSLQSGVPSRFSGSGSGTDFTLTISSLQPEDFATYYCQQGVSFPRTFGGGTKVEIKRTVAAPSVFIFPPSDEQLKSGTASVVCLLNNFYPREAKVQWKVDNALQSGNSQESVTEQDSKDSTYSLSSTLTLSKADYEKHKVYACEVTHQGLSSPVTKSFNRGEC
1.1 fold | 1.7 fold | 14 nM | 140000 M⁻¹ s⁻¹ | AB0621 F3' CEACAM5 TriNKET (bispecific antibody, human IgG1, kappa) DIVMTQSPDSLAVSLGERATINCKSSHSLLYGNFQNNYLAWYQQKPGQPPKLLIYWASTRESGVPDRFSGSGSGTDFTLTISSLQAEDVAVYYCQQYYSYPYTFGCGTKLEIKGGGGSGGGGSGGGGSGGGGSQVQLVQSGAEVKKPGASVKVSCKASGYTFTAYTIHWVRQAPGQCLEWMGYINPSSGYTEYNQKFKDRTTLTADTSISTAYMELSRLRSDDTAVYYCTREGGLLWFDYWGQGTLVTVSSGSDKTHTCPPCPAPELLGGPSVFLFPPKPKDTLMISRTPEVTCVVVDVSHEDPEVKFNWYVDGVEVHNAKTKPREEQYNSTYRVVSVLTVLHQDWLNGKEYKCKVSNKALPAPIEKTISKAKGQPREPRVYTLPPCRDELTKNQVSLTCLVKGFYPSDIAVEWESNGQPENNYKTTPPVLVSDGSFTLYSKLTVDKSRWQQGNVFSCSVMHEALHNHYTQKSLSLSPG heavy: EVQLVESGGGLVKPGGSLRLSCAASGFTFSSYSMNWVRQAPGKGLEWVSSISSSSSYIYYADSVKGRFTISRDNAKNSLYLQMNSLRAEDTAVYYCARGAPIGAAAGWFDPWGQGTLVTVSSASTKGPSVFPLAPSSKSTSGGTAALGCLVKDYFPEPVTVSWNSGALTSGVHTFPAVLQSSGLYSLSSVVTVPSSSLGTQTYICNVNHKPSNTKVDKKVEPKSCDKTHTCPPCPAPELLGGPSVFLFPPKPKDTLMISRTPEVTCVVVDVSHEDPEVKFNWYVDGVEVHNAKTKPREEQYNSTYRVVSVLTVLHQDWLNGKEYKCKVSNKALPAPIEKTISKAKGQPREPQVCTLPPSRDELTENQVSLTCLVKGFYPSDIAVEWESNGQPENNYKTTPPVLDSDGSFFLYSWLTVDKSRWQQGNVFSCSVMHEALHNHYTQKSLSLSPG light: DIQMTQSPSSVSASVGDRVTITCRASQGISSWLAWYQQKPGKAPKLLIYAASSLQSGVPSRFSGSGSGTDFTLTISSLQPEDFATYYCQQGVSFPRTFGGGTKVEIKRTVAAPSVFIFPPSDEQLKSGTASVVCLLNNFYPREAKVQWKVDNALQSGNSQESVTEQDSKDSTYSLSSTLTLSKADYEKHKVYACEVTHQGLSSPVTKSFNRGEC
0.9 fold | 1.1 fold | 1.9 nM | 310000 M⁻¹ s⁻¹ | AB0411 F3' CEACAM5 TriNKET (bispecific antibody, human IgG1, kappa) DIQLTQSPATLSVSPGERATLSCRASQSVSSSYLAWYQQKPGQAPRLLIYGASSRATGIPDRFSGSGSGTDFTLTISRLEPEDFAVYYCQQYNNWPLTFGCGTKVEIKGGGGSGGGGSGGGGSGGGGSQVQLVQSGGGLVQPGGSLRLSCAASGFTFTSYAMSWVRQAPGKCLEWVSAISGTGDSTFYADSVKGRFTFSRDNSKNTLYLQMNSLRAEDTAVYYCAKDLGWLQYGLFDYWGQGTLVTVSSGSDKTHTCPPCPAPELLGGPSVFLFPPKPKDTLMISRTPEVTCVVVDVSHEDPEVKFNWYVDGVEVHNAKTKPREEQYNSTYRVVSVLTVLHQDWLNGKEYKCKVSNKALPAPIEKTISKAKGQPREPRVYTLPPCRDELTKNQVSLTCLVKGFYPSDIAVEWESNGQPENNYKTTPPVLVSDGSFTLYSKLTVDKSRWQQGNVFSCSVMHEALHNHYTQKSLSLSPG heavy: EVQLVESGGGLVKPGGSLRLSCAASGFTFSSYSMNWVRQAPGKGLEWVSSISSSSSYIYYADSVKGRFTISRDNAKNSLYLQMNSLRAEDTAVYYCARGAPIGAAAGWFDPWGQGTLVTVSSASTKGPSVFPLAPSSKSTSGGTAALGCLVKDYFPEPVTVSWNSGALTSGVHTFPAVLQSSGLYSLSSVVTVPSSSLGTQTYICNVNHKPSNTKVDKKVEPKSCDKTHTCPPCPAPELLGGPSVFLFPPKPKDTLMISRTPEVTCVVVDVSHEDPEVKFNWYVDGVEVHNAKTKPREEQYNSTYRVVSVLTVLHQDWLNGKEYKCKVSNKALPAPIEKTISKAKGQPREPQVCTLPPSRDELTENQVSLTCLVKGFYPSDIAVEWESNGQPENNYKTTPPVLDSDGSFFLYSWLTVDKSRWQQGNVFSCSVMHEALHNHYTQKSLSLSPG light: DIQMTQSPSSVSASVGDRVTITCRASQGISSWLAWYQQKPGKAPKLLIYAASSLQSGVPSRFSGSGSGTDFTLTISSLQPEDFATYYCQQGVSFPRTFGGGTKVEIKRTVAAPSVFIFPPSDEQLKSGTASVVCLLNNFYPREAKVQWKVDNALQSGNSQESVTEQDSKDSTYSLSSTLTLSKADYEKHKVYACEVTHQGLSSPVTKSFNRGEC
